Measurements: US12281155 (INSTITUT PASTEUR, dated 2025)
Changes are numbered by the printed parent chain.

B1: SPK002M A3 antibody (antibody, human IgG1, kappa, V domains shown)
VH: EVQLVESGGGLIQPGGSLRLSCAASTITVTSNYMSWVRQAPGKGLEWVSVIYPGGSTFYADSVKGRFTISADNSKNTLYLQMNSLRAEDTAVYYCARDLVVYGMDVWGQGTTVTVSS
VL: EIVLTQSPGTLSLSPGERATLSCRASQSVSSSYLAWYQQKPGQAPRLLIYGASSRATGIPGRFSGSGSGTDFTLTISRLEPEDFAVYYCQQGVTFGGGTKVEIKR
B2: SPK002M A1 antibody (antibody, human IgG1, kappa, V domains shown)
VH: B1 VH
VL: B1 VL with S28G, V29F
B3: SPK002M A2 antibody (antibody, human IgG1, kappa, V domains shown)
VH: B1 VH
VL: B1 VL with S28G
B4: SPK002M A6 antibody (antibody, human IgG1, kappa, V domains shown)
VH: B1 VH with T26G
VL: B1 VL with V86I
B5: SPK002 antibody (parental version Cv2.3194 described in WO 2022/228827) (antibody, V domains shown)
VH: EVQLVESGGGLIQPGGSLRLSCAASGITVTSNYMSWVRQAPGKGLEWVSVIYPGGSTFYADSVKGRFTISRDNSKNTLYLQMNSLRAEDTAVYYCARDLVVYGMDVWGQGTTVTVS
VL: EIVLTQSPGTLSLSPGERATLSCRASQSVSSSYLAWYQQKPGQAPRLLIYGASSRATGIPGRFSGSGSGTDFTLTISRLEPEDFAIYYCQQGVTFGGGTKVEIK

Key:
[1] = target: Spike protein of SARS-CoV-2 strain BA.2.86 (hCoV-19/France/IDF-IPP17625/2023) (SARS-CoV-2); assay: cell-based or functional assay
[2] = target: Spike protein of SARS-CoV-2 strain XBB.1.5 (GISAID EPI_ISL_16353849) (SARS-CoV-2); assay: cell-based or functional assay
[3] = target: Spike protein of SARS-CoV-2 strain JN.1 (hCoV-19/France/HDF-IPP21391/2023) (SARS-CoV-2); assay: cell-based or functional assay
[4] = target: Spike protein of SARS-CoV-2 strain D614G (hCoV-19/France/GE1973/2020) (SARS-CoV-2, UniProt P0DTC2 14-1273); assay: cell-based or functional assay
[5] = target: Spike protein of SARS-CoV-2 strain EG.5.1 (hCoV-19/France/GES-IPP15954/2023) (SARS-CoV-2); assay: cell-based or functional assay
[6] = target: Spike protein of SARS-CoV-2 strain XBB.1.16 (hCoV-19/France/GES-IPP7712/2023) (SARS-CoV-2); assay: cell-based or functional assay
[7] = target: T1, recombinant SARS-CoV-2 Spike RBD domain, BA.4/5 variant (SARS-CoV-2); assay: ELISA on coated RBD
T1 construct: also called RBD BA.4/5 variant

[8] = target: T2, recombinant SARS-CoV-2 Spike RBD domain, BA.2.86 variant (SARS-CoV-2); assay: ELISA on coated RBD
T2 construct: also called RBD BA.2.86 variant

[9] = target: T3, recombinant SARS-CoV-2 Spike RBD domain, JN-1 variant (SARS-CoV-2); assay: ELISA on coated RBD
T3 construct: also called RBD JN-1 variant

[10] = target: T4, recombinant SARS-CoV-2 Spike RBD domain, BA.2 variant (SARS-CoV-2); assay: ELISA on coated RBD
T4 construct: also called RBD BA.2. variant

[11] = target: T5, recombinant SARS-CoV-2 Spike RBD domain, EG.5 variant (SARS-CoV-2); assay: ELISA on coated RBD
T5 construct: also called RBD EG.5.1 variant

[12] = target: T6, recombinant SARS-CoV-2 Spike RBD domain, XBB.1.5 variant (SARS-CoV-2); assay: ELISA on coated RBD
T6 construct: also called RBD XBB.1.5 variant

[13] = target: T7, recombinant SARS-CoV-2 Spike RBD domain, Delta variant (SARS-CoV-2); assay: ELISA on coated RBD
T7 construct: also called RBD Delta variant

[14] = target: T8, recombinant SARS-CoV-2 Spike RBD domain, BA.2.75.2 variant (SARS-CoV-2); assay: ELISA on coated RBD
T8 construct: also called RBD BA.2.75.2 variant

[15] = target: T9, recombinant SARS-CoV-2 Spike RBD domain, XBB.1.16 variant (SARS-CoV-2); assay: ELISA on coated RBD
T9 construct: also called RBD XBB.1.16 variant

[16] = target: T10, recombinant SARS-CoV-2 Spike RBD domain, BQ.1.1 variant (SARS-CoV-2); assay: ELISA on coated RBD
T10 construct: also called RBD BQ.1.1. variant

[17] = target: T1, recombinant SARS-CoV-2 Spike RBD …; assay: competition ELISA, blocking of RBD binding to ACE2 ectodomain
[18] = target: T2, recombinant SARS-CoV-2 Spike RBD …; assay: as above
[19] = target: T3, recombinant SARS-CoV-2 Spike RBD …; assay: as above
[20] = target: T4, recombinant SARS-CoV-2 Spike RBD …; assay: as above
[21] = target: T5, recombinant SARS-CoV-2 Spike RBD …; assay: as above
[22] = target: T6, recombinant SARS-CoV-2 Spike RBD …; assay: as above
[23] = target: T7, recombinant SARS-CoV-2 Spike RBD …; assay: as above
[24] = target: T8, recombinant SARS-CoV-2 Spike RBD …; assay: as above
[25] = target: T9, recombinant SARS-CoV-2 Spike RBD …; assay: as above
[26] = target: T10, recombinant SARS-CoV-2 Spike RBD …; assay: as above

| Binder | IC50, S-Fuse neutralization of live virus [1] [mg/L] | IC50, S-Fuse neutralization of live virus [2] [mg/L] | IC50, S-Fuse neutralization of live virus [3] [mg/L] | IC50, S-Fuse neutralization of live virus [4] [mg/L] | IC50, S-Fuse neutralization of live virus [5] [mg/L] | IC50, S-Fuse neutralization of live virus [6] [mg/L] | Binding AUC [7] | Binding AUC [8] | Binding AUC [9] | Binding AUC [10] | Binding AUC [11] | Binding AUC [12] | Binding AUC [13] | Binding AUC [14] | Binding AUC [15] | Binding AUC [16] | Blocking % [17] [%] | Blocking % [18] [%] | Blocking % [19] [%] | Blocking % [20] [%] | also measured |
| --- | --- | --- | --- | --- | --- | --- | --- | --- | --- | --- | --- | --- | --- | --- | --- | --- | --- | --- | --- | --- | --- |
| B1 | 0.05 | 0.12 | 76.3 | 0.11 | 5.92 | 0.36 | 30 | 38 | 26 | 32 | 34 | 35 | 31 | 34 | 31 | 30 | 96 | 85 | 0 | 94 | Blocking % [21]: 79%; Blocking % [22]: 95%; Blocking % [23]: 95%; Blocking % [24]: 96%; Blocking % [25]: 95%; Blocking % [26]: 96% |
| B2 | 0.02 | 0.07 | 1.28 | 0.08 | 0.15 | 0.17 | 31 | 37 | 39 | 33 | 35 | 35 | 31 | 34 | 30 | 30 | 97 | 85 | 71 | 95 | Blocking % [21]: 90%; Blocking % [22]: 97%; Blocking % [23]: 94%; Blocking % [24]: 96%; Blocking % [25]: 97%; Blocking % [26]: 97% |
| B3 | 0.05 | 0.1 | 25.3 | 0.1 | 1.65 | 0.33 | 30 | 38 | 37 | 32 | 35 | 36 | 31 | 34 | 31 | 30 | 97 | 85 | 1 | 94 | Blocking % [21]: 88%; Blocking % [22]: 96%; Blocking % [23]: 95%; Blocking % [24]: 96%; Blocking % [25]: 96%; Blocking % [26]: 97% |
| B4 | 0.63 | 0.36 | 100 | 0.07 | 21.1 | 1.34 | – | – | – | – | – | – | – | – | – | – | – | – | – | – | – |
| B5 | 100 | 216 | 100 | 0.09 | 100 | 156 | – | – | – | – | – | – | – | – | – | – | – | – | – | – | – |
